Data taken from publication PMC2199204.

Biological target: DGKζ with a FLAG epitope tag at its COOH terminus (DGKζ-FLAG) (human)
Assay: co-IP

Sequence of DGKζ with a FLAG epitope tag at its COOH terminus (DGKζ-FLAG) (human) (Q13574 whole entry): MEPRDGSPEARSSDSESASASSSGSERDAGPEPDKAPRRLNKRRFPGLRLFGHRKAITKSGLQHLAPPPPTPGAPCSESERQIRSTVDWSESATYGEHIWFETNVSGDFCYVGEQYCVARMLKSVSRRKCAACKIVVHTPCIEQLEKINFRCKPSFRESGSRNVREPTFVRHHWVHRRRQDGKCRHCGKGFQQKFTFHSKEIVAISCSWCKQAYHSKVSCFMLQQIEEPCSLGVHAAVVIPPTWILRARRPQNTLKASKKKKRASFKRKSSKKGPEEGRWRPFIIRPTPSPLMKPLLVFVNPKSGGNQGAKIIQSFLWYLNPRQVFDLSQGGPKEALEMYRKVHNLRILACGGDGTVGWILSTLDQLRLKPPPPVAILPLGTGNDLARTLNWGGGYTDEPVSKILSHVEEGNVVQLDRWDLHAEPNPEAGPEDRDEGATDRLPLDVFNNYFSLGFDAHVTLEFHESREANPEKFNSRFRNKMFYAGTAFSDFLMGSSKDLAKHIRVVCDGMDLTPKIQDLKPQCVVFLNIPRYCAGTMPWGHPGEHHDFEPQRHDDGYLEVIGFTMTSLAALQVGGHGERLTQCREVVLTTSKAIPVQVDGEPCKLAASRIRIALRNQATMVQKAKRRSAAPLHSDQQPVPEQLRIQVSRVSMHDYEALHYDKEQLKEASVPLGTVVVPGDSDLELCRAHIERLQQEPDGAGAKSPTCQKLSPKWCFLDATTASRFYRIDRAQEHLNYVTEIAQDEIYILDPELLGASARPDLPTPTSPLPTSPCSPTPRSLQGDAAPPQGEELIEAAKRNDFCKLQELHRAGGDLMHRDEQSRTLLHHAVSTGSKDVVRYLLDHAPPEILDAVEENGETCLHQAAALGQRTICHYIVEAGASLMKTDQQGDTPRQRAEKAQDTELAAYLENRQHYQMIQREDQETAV
Sequence of RasGRP with an NH2-terminal HA epitope tag (HA-RasGRP) (O95267 whole entry): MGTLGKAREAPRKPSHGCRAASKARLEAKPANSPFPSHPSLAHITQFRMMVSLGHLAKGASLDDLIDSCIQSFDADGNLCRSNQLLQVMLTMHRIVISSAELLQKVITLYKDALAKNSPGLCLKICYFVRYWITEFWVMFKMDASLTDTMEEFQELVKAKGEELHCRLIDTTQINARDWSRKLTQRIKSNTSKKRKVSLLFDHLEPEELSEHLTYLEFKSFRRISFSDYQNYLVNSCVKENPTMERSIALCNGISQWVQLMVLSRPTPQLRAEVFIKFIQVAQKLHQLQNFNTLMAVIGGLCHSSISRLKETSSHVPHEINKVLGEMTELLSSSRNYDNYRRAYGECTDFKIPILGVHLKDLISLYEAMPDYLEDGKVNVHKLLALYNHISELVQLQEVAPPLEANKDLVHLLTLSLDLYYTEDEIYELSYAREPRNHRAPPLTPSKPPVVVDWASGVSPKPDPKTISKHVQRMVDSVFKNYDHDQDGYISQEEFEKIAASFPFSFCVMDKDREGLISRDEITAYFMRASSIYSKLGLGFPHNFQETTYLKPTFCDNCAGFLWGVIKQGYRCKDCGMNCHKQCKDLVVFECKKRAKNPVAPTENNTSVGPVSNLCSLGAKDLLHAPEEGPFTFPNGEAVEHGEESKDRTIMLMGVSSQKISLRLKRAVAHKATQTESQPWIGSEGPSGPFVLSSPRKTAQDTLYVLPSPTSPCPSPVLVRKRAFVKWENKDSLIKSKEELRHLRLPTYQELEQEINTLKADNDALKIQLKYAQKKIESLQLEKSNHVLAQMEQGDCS

Row | Substance | percent coprecipitated
1 | A15-H-Ras (from UniProt P01112 1-189) (natural protein) | > 20%
2 | RasGRP with an NH2-terminal HA epitope tag (HA-RasGRP) (from UniProt O95267 1-797) (natural protein) | > 20%
